Patent publication US20060036083

System: ADP-ribosylated HNP-1
Sequence (chain, as listed by the source): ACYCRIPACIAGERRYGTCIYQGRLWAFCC

recombinant human ADP-ribosylarginine hydrolase
Release of ADP-ribose from ADP-ribosylated HNP-1 (MALDI-MS): released a molecule of 3,444 daltons consistent with HNP-1 (calculated 3, 443 daltons)
